For test [1], the target named is wild type full-length SMAD2 (S2FLWT), Q15796. As to the kind of experiment: SAXS with ensemble optimisation. The conditions noted are these: remark: other sources report otherwise.
Test [2] has the same target. As to the kind of experiment: SAXS with ensemble optimisation. The conditions noted are these: remark: other sources report otherwise. This is another data set of the same source.

B1: wild type full-length SMAD2 (S2FLWT), Q15796 1-467 (natural protein)
chain: MSSILPFTPPVVKRLLGWKKSAGGSGGAGGGEQNGQEEKWCEKAVKSLVKKLKKTGRLDELEKAITTQNCNTKCVTIPSTCSEIWGLSTPNTIDQWDTTGLYSFSEQTRSLDGRLQVSHRKGLPHVIYCRLWRWPDLHSHHELKAIENCEYAFNLKKDEVCVNPYHYQRVETPVLPPVLVPRHTEILTELPPLDDYTHSIPENTNFPAGIEPQSNYIPETPPPGYISEDGETSDQQLNQSMDTGSPAELSPTTLSPVNHSLDLQPVTYSEPAFWCSIAYYELNQRVGETFHASQPSLTVDGFTDPSNSERFCLGLLSNVNRNATVEMTRRHIGRGVRLYYIGGEVFAECLSDSAIFVQSPNCNQRYGWHPATVCKIPPGCNLKIFNNQEFAALLAQSVNQGFEAVYQLTRMCTIRMSFVKGWGAEYRRQTVTSTPCWIELHLNGPLQWLDKVLTQMGSPSVRCSSMS
In the case of B1, in test [1], the percent of the population as dimer amounted to 18% and the percent of the population as trimer was 1%. The percent of the population as trimer in test [2] was determined as 16.4%.

For the origin of these results see article PMC8479633.
